Results reported in US20090297524A1 (DOMANTIS, published 2009).
Substitutions are numbered along the chain they refer to.

T1: Recombinant human CD40L (human, UniProt P29965 108-261, limits assumed)
T1 construct: also called CD40 ligand
T1 sequence (looked up): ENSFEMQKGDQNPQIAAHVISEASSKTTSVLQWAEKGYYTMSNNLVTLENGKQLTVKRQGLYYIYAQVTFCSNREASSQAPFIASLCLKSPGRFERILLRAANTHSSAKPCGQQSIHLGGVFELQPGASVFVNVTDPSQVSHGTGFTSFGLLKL

B1: DOM.164 (other)
VL: DIQMTQSPSSLSASVGDRVTITCRASQSIDTDLEWYQQKPGKAPKLLIYDGSWLQSGVPSRFSGSGSGTDFTLTISSLQPEDFATYYCQQYRWIPVTFGQGTKVEIKR
notes: Vk dAb
B2: DOM.175 (other)
VL: DIQMTQSPSSLSASVGDRVTITCRASQPISGGLRWYQQKPGKAPKLLIYSTSMLQSGVPSRFSGSGSGTDFTLTISSLQPEDFATYYCQQLYSAPYTFGQGTKVEIKR
notes: Vk dAb
B3: DOM.90 (other)
VL: DIQMTQSPSSLSASVGDRVTITCRASQSISDALFWYQQKPGKAPRLLIYYGSVLQSGVPSRFSGSGSGTDFTLTISSLQPEDFATYYCQQRFQEPVTFGQGTKVEIKR
notes: Vk dAb
B4: DOM.92 (other)
VH: EVQLLESGGGLVQPGGSLRLSCAASGFTFVDYPMGWVRQAPGKGLEWVSTISTGGFSTYYADSVKGRFTISRDNSKNTLYLQMNSLRAEDTAVYYCAKARYYYLSQIKNFDYWGQGTLVTVSS
notes: VH dAb
B5: DOM.93 (other)
VH: EVQLLESGGGLVQPGGSLRLSCAASGFTFDIYGMTWVRQAPGKGLEWVSSISPLGLVTYYADPVKGRFTISRDNSKNTLYLQMNSLRAEDTAVYYCAKLKEHGDVPFDYWGQGTLVTVSS
notes: VH dAb
B6: DOM.94 (other)
VH: EVQLLESGGGLVQPGGSLRLSCAASGFTFELYPMSWVRQAPGKGLEWVSTISPTGLLTYYADSVKGRFTISRDNSKNTLYLQMNSLRAEDTAVYYCAKFKRSGKTDDTNFDYWGQGTLVTVSS
notes: VH dAb
B7: DOM.95 (other)
VH: EVQLLESGGGLVQPGGSLRLSCAASGFTFREYDMLWVRQAPGKGLEWVSTIVGDGNGTYYADSVKGRFTISRDNSKNTLYLQMNSLRAEDTAVYYCAKQDRQFDYWGQGTLVTVSS
notes: VH dAb
B8: DOM-15 (other)
VH: EVQLLESGGGLVQPGGSLRLSCAASGFTFEEYVMSWVRQAPGKGLEWVSTISPIGLTTYYADSVKGRFTISRDNSKNTLYLQMNSLRAEDTAVYYCAEFPLIILPDFDYWGQGTLVTVSS
notes: VH dAb
B9: DOM.97 (other)
VH: EVQLLESGGGLVQPGGSLRLSCAASGFTFEEYGMSWVRQAPGKGLEWVSTISPIGVTTYYADSVKGRFTISRDNSKNTLYLQMNSLRAEDTAVYYCAKNAYDRKSNFDYWGQGTLVTVSS
notes: VH dAb
B10: DOM.98 (other)
VH: EVQLLESGGGLVQPGGSLRLSCAASGFTFDRYVMVWVRQAPGKDLEWVSGITPSGRRTYYADSVKGRFTISRDNSKDTLYLQMNSLRAEDTAVYYCAKVLGRHFDPLLPSFDYWGQGTLVTVSS
notes: VH dAb
B11: DOM-11 (other)
VH: EVQLLESGGGLVQPGGSLRLSCAASGFTFGDYEMSWVRQAPGKGLEWVSGIDGEGSDTYYADSVKGRFTISRDNSKNTLYLQMNSLRAEDTAVYYCAKPGRSFDYWGQGTLVTVSS
notes: VH dAb
B12: DOM-14 (other)
VH: EVQLLESGGGLVQPGGSLRLSCAASGFTFWSYDMTWVRQAPGKGLEWVSSIMASGDDTYYADSVKGRFTISRDNSKNTLYLQMNSLRAEDTAVYYCAKWDRDFDYWGQGTLVTVSS
notes: VH dAb
B13: DOM-19 (other)
VH: EVQLLESGGGLVQPGGSLRLSCAASGFPFPQYQMAWVRQAPGKGLEWVSMITSDGLDTYYADSVKGRFTISRDNSKNTLYLQMNSLRAEDTAVYYCAKPEPLFDYWGQGTLVTVSS
notes: VH dAb
B14: DOM-22 (other)
VH: B11 VH with G30H, D31N, G50S, D52S, G53S, E54G, D57S, R101V, S102K
notes: VH dAb
B15: DOM-23 (other)
VH: B11 VH with D31L, S35T, G50S, D52T, E54D, S56I, D57S, K76R, P99A, S102K
notes: VH dAb
B16: DOM-25 (other)
VH: B11 VH with G30D, D31N, S35T, G50T, D52T, G53S, E54Q, S56T, D57S, G100D
notes: VH dAb
B17: DOM-26 (other)
VH: B12 VH with W30R, D33E, M52T, A53S, S54D, D56G, D57T, W99P, R101K, D102T
notes: VH dAb
B18: DOM-28 (other)
VH: B7 VH with R30G, E31H, L35A, V52S, G53D, D54N, Q99P, D100G, Q102D
notes: VH dAb
B19: DOM-29 (other)
VH: B13 VH with P28T, P30G, Q31R, M50S, T52S, L56G, D57G, E100G, P101R, L102A
notes: VH dAb
B20: DOM-41 (other)
VH: B7 VH with R30F, D33E, L35T, T50S, V52A, G53N, N56S, G57T, Q99P
notes: VH dAb
B21: DOM-42 (other)
VH: B11 VH with D31P, S35T, G50S, D52V, E54D, S56L, G100D, S102V
notes: VH dAb
B22: DOM-43 (other)
VH: EVQLLESGGGLVQPGGSLRLSCAASGFTFASYEMAWVRQAPGKGLEWVSSIGSDGGPTYYADSVKGRFTISRDNSKNTLYLQMNSLRAEDSAVYYCAKPDRAFDYWGQGTLVTVSS
notes: VH dAb
B23: DOM-57 (other)
VH: B11 VH with G30S, D31E, E33D, S35Y, G50W, G53T, E54D, S56G, R101L, S102K
notes: VH dAb
B24: DOM-58 (other)
VH: B11 VH with G30E, D31V, E33T, S35A, G50T, G53E, E54S, S56R, R101V, S102W
notes: VH dAb
B25: DOM-65 (other)
VH: B11 VH with G30N, D31E, S35T, G50T, D52T, G53S, D57G, G100N, R101G, S102K
notes: VH dAb
B26: DOM-66 (other)
VH: B11 VH with G30S, S35L, G50T, D52T, G53S, S56H, D57S, R101T
notes: VH dAb
B27: DOM-67 (other)
VH: B11 VH with G30S, G50T, G53S, E54D, D57F, R101V, S102K
notes: VH dAb
B28: DOM-68 (other)
VH: B11 VH with G30K, S35T, G50S, D52S, G53S, E54T, S56Q, D57S, R101N, S102K
notes: VH dAb
B29: DOM-73 (other)
VH: B11 VH with G30S, D31K, E33D, G50T, D52L, G53E, E54D, S56L, D57T, S102L
notes: VH dAb
B30: DOM-74 (other)
VH: EVQLLESGGGLVQPGGSLRLSCAASGFTFSDYPMTWVRQAPGKGLEWVSTILSPGTETYYADSVKGRFTISRDNSKNTLYLQMNSLRAEDTAVYYCAKAEKDFDYWGQGTLVTVSS
notes: VH dAb
B31: DOM-78 (other)
VH: B13 VH with P28T, P30E, Q31R, M50T, T52S, L56G, D57G, E100G, P101H, L102R
notes: VH dAb
B32: DOM-80 (other)
VH: B22 VH with A30G, S31R, E33Q, G52S, P57G, S91T, D100S, A102R
notes: VH dAb
B33: DOM-83 (other)
VH: B13 VH with P28T, P30A, Q31L, M50S, T52D, D54S, L56S, P101R, L102D
notes: VH dAb
B34: DOM-84 (other)
VH: EVQLLESGGGLVQPGGSLRLSCAASGFTFRQYQMAWARQAPGKGLEWVSTIASDGVSTYYADSVKGRFTISRDNSKNTLYLQMNSLRAEDTAVYYCAKVGRDFDYWGQGTLVTVSS
notes: VH dAb
B35: DOM.128 (other)
VH: B34 VH with R30E, Q31R, A37V, A52S, V56G, S57G, V99P, R101T, D102V
notes: VH dAb
B36: DOM.129 (other)
VH: B22 VH with A30P, S31K, G52D, S53G, G56K, P57S, S91T, R101Q, A102F
notes: VH dAb
B37: DOM.130 (other)
VH: EVQLLESGGGLVQPGGSLRLSCTASGFTFAGYQMSWVRQAPGKGLEWVSSITNEGVSTYYADSVKGRFTISRDNSKNTLYLQMNSLRAEDTAVYYCAKPGKYFDYWGQGTLVTVSS
notes: VH dAb
B38: DOM.131 (other)
VH: B13 VH with P28T, P30G, Q31E, Q33E, A35V, M50S, D57S, E100G, P101I, L102R
notes: VH dAb
B39: DOM.134 (other)
VH: B22 VH with S31D, A35T, G52T, G56V, P57S, S91T, D100S, R101V, A102Q
notes: VH dAb
B40: DOM.178 (other)
VH: EVQLLESGGGLVQPGGSLRLSCAASGFTFEDFDMAWVRQAPGKGLEWVSSINDQGSLTYYADSVKGRFTISRDNSKNTLYLQMNSLRAEDTAVYYCAKPDQFFDYWGQGTLVTVSS
notes: VH dAb
B41: DOM.180 (other)
VH: B11 VH with G30T, S35G, G50T, D52T, G53S, E54L, S56E, D57S, S102I
notes: VH dAb

The binders below were run against T1, Recombinant human CD40L (assay: CD40L/CD40-Fc receptor binding assay;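 note: plate assay with coated human CD40-Fc, bound ligand detected via HRP anti-biotin antibody and TMB, OD at 450 nm, lower signal indicates stronger inhibition by dAb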).

Binding result, binds:
B1, B2, B3, B4, B5, B6, B7, B8, B9, B10, B11, B12, B13, B14, B15, B16, B17, B18, B19, B20, B21, B22, B23, B24, B25, B26, B27, B28, B29, B30, B31, B32, B33, B34, B35, B36, B37, B38, B39, B40, B41
